The record followed here is US20260132200A1.

Assay [1] concerns the target human CD3 expressed on cells (Jurkat, a CD3+ human T-cell line; human T cells) (human) (UniProt P07766). Briefly: cell-based or functional assay.
Assay [2] has the same target. Briefly: cell-based or functional assay. The source holds these as a separate data set.
Assay [3] concerns the target cynomolgus monkey CD3 on monkey T cells (CD2+CD4+ cells of cynomolgus PBMCs) (cynomolgus monkey) (UniProt Q95LI5). Briefly: FACS on cynomolgus PBMCs, CD2+CD4+ T cells.
Assay [4] has the same target. Briefly: FACS on monkey PBMCs, CD2+CD4+ T cells.
The target of assay [5] is human CD20 expressed on Raji cells (CD3-, CD20+ human B-cell line) (human) (UniProt P11836). The assay is described as follows: cell-based or functional assay.
Sequence of human CD20 expressed on Raji cells (CD3-, CD20+ human B-cell line) (human) (P11836 whole entry): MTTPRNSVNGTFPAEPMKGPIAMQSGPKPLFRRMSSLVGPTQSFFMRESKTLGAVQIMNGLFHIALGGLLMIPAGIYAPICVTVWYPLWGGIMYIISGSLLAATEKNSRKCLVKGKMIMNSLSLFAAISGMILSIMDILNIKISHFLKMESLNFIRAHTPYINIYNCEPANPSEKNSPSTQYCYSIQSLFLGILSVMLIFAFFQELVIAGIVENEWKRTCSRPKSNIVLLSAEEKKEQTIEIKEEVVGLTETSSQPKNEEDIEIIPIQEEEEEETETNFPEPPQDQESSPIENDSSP

One may read the EC50 as the concentration giving half of the maximal effect.

Where two headings read alike, the source gives them in different places.

Sequence of cynomolgus monkey CD3 on monkey T cells (CD2+CD4+ cells of cynomolgus PBMCs) (cynomolgus monkey) (Q95LI5 22-198): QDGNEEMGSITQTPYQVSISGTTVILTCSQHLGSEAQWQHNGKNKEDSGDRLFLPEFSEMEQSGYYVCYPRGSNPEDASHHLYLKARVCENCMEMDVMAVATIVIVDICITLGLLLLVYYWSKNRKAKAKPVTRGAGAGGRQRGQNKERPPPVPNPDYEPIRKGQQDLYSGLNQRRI

Regarding “OKT-3, mouse monoclonal antibody against human T-cell surface antigens (ATCC CRL-8001)”, the figures for the U937 Cytotoxicity Human T-cells [M] (EC50) in assay [1] and in assay [2] were 2.35e-12 M and 3.04e-12 M, respectively.

In the case of “SP34, mouse monoclonal antibody reactive against the epsilon chain of the T3 complex on human T lymphocyte cells”, the half-maximal effective concentration (EC50) in assay [3] and in assay [4] was 0.0703 nM throughout.

In assay [5], “Control III: anti-CD20 therapeutic antibody with heavy and light chain sequences of Rituxan (Rituximab)” showed a CDC EC50, Raji of 0.0966 nM; a CDC EC50, Raji SCID1 of 85.6 nM; a CDC EC50, Raji SCID2 of 0.0587 nM; a CDC EC50, Raji SCID3 of 25.5 nM. This substance also yielded a CDC EC50, Raji SCID4 in assay [5] of 5.29 nM.
